# Laboratory results taken from patent publication US20260184758A1 (CUE BIOPHARMA, published 2026).
# B1: biotinylated NKG2A/CD94 heterodimer (receptor)
# chain 1: not shown
# chain 2: KNSFTKLSIEPAFTPGPNIELQKDSDCCSCQEKWVGYRCNCYFISSEQKTWNESRHLCASQKSSLLQLQNTDELDFMSSSQQFYWIGLSYSEEHTAWLWENGSALSQYLFPSFETFNTKNCIAYNPNGNALDESCEDKNRYICKQQLI
# notes: Biotinylated heterodimer immobilized on streptavidin-coated biosensors; also called CD94/NKG2A receptor; NKG2A/CD94 complex
# B2: biotinylated NKG2C/CD94 heterodimer (receptor)
# chain 1: not shown
# chain 2: B1 chain 2
# notes: Biotinylated heterodimer immobilized on streptavidin-coated biosensors; also called CD94/NKG2C receptor
# How the values were obtained:
# [1] = biological target: T1, construct 4276 (single-chain TMP: NKG2 peptide …, β2M polypeptide, HLA-E heavy chain polypeptide, Ig Fc …); test: BLI (Octet HTX), biotinylated receptor on streptavidin biosensor, bivalent TMP as analyte, kinetic analysis
# Text: (§1) Streptavidin-coated biosensors were used to immobilize biotinylated NKG2A/CD94 heterodimers, or biotinylated NKG2C/CD94 heterodimers.
# [2] = biological target: T1, construct 4276 (single-chain TMP: NKG2 …); test: BLI (Octet HTX), biotinylated receptor on streptavidin biosensor, bivalent TMP as analyte, steady state Kd (avidity)
# Text: as §1
Binder,koff [1],Kd [2]
B1,0.04 s⁻¹,57 nM
B2,0.053 s⁻¹,55 nM
